The values below come from paper PMC2568893, “Role of αBI5 and αBT162 residues in subunit interaction during oligomerization of αB-crystallin” (Molecular Vision, 2008).

Series [1] concerns the molecule itself. The experiment in a line: SEC-MALS; TSK G5000PWXL column, 100 µg protein, 50 mM phosphate, 150 mM NaCl, 0.02% sodium azide, pH 7.2, with the reducing agent TCEP; without it both Cys mutants formed larger oligomers. (In gel filtration, larger molecules generally elute earlier.)
Series [2] has as its target αBT162C mutant of human αB-crystallin (human) (UniProt P02511). The experiment in a line: FRET or BRET; amine-labelled proteins: Alexa Fluor 350 TFP ester (donor) and Alexa Fluor 488 TFP ester (acceptor); 50 µg of each labelled protein mixed at 37 °C; subunit exchange rate from Ft/F0. On the technique in general: Bioluminescence resonance energy transfer reports proximity on the nanometre scale.

Substitutions are numbered along the chain they refer to. Names and notes keep the numbering of the source.

B1: αBI5C mutant of human αB-crystallin (natural protein, UniProt P02511 1-175, looked up)
chain: MDIACHHPWIRRPFFPFHSPSRLFDQFFGEHLLESDLFPTSTSLSPFYLRPPSFLRAPSWFDTGLSEMRLEKDRFSVNLDVKHFSPEELKVKVLGDVIEVHGKHEERQDEHGFISREFHRKYRIPADVDPLTITSSLSSDGVLTVNGPRKQVSGPERTIPITREEKPAVTAAPKK
modifications: FRET assays only: Alexa Fluor 488 or Alexa Fluor 555 C5-maleimide on the cysteine (thiol-labelled), or Alexa Fluor 350 carboxylic acid TFP ester on amines (amine-labelled, donor); unlabelled in the other experiments
notes: human αB-crystallin (HspB5), 175 amino acids, with I5C; cDNA in pET-23d(+); Homo-oligomer, on average 35 subunits when reduced; also called αB5C
On to B1, for which, in series [1], the stoichiometry N (usually the number of molecules, sites or subunits per partner or assembly) worked out at 35 subunits. In series [2], this molecule returned a rate of subunit exchange of 0.000655 s⁻¹ and a subunit interaction rate of 6.5e-05 s⁻¹.

B2: αBT162C mutant of human αB-crystallin (natural protein, UniProt P02511 1-175, looked up)
chain: B1 chain with C5I, T162C
modifications: FRET assays only: Alexa Fluor 488 or Alexa Fluor 555 C5-maleimide on the cysteine (thiol-labelled), or Alexa Fluor 488 carboxylic acid TFP ester on amines (amine-labelled, acceptor); unlabelled in the other experiments
notes: human αB-crystallin (HspB5), 175 amino acids, with T162C; cDNA in pET-23d(+); Homo-oligomer, on average 35 subunits when reduced; also called αB162C
B2: in series [1], the “stoichiometry N” value turned out to be 35 subunits.
